Columns and labels:
[1] = target: T1, Purified recombinant human NGF (human, UniProt P01138 122-241, limits assumed, radioiodinated with 125I (lactoperoxidase method) where used as tracer); test: displacement binding assays of the two Poros 20HQ peaks
T1 construct: also called unlabeled human NGF

[2] = target: T1, Purified recombinant human NGF; test: competitive binding assay, 125I-NGF on A875 cells (p75NGFR), numerical fit
Description: (§1) The binding affinity of ¹²⁵I-NGF to the Ig-like domains of TrkA was determined by a competitive binding assay using the melanoma cell line A875 American Tissue Culture Collection (ATCC) which expresses the NGF receptor p75^NGFR.
(§2) Purified recombinant human NGF was radioiodinated with I¹²⁵ using a lactoperoxidase method and equilibrium binding with [¹²⁵I]-NGF was carried out (Treanor et al., 1991; Neuroscience Letters 121 p73-76). Briefly A875 cells (10⁶ per ml) were incubated with [¹²⁵I]-NGF (0.14 nM) and serial dilutions of unlabeled human NGF (concentration range: 10⁻⁶ M to 1×10⁻¹¹ M), TrkAIg1,2 (concentration range: 4×10⁻⁶ M to 1×10⁻¹¹ M) or TrkAIg2 (concentration range 5×10⁻⁶ M to 1×10 ⁻¹¹ M). Tubes were shaken vigorously at room temperature for 1 hr. 100 μl aliquots were then layered over 200 μl sucrose (0.15 M in binding buffer) in Beckman tubes. After centrifugation (15 seconds at 20,000 g) bound and free [¹²⁵I]-NGF were separated by freezing the tubes in liquid nitrogen and determining the bound [¹²⁵I]-NGF of the cell pellet. Binding reactions were carried out in triplicate. Counts were corrected for background and specific binding was between 85-87% of total binding. The competitive binding assay (FIG. 9) allowed estimation of the binding affinity of [¹²⁵I]-NGF to the recombinant TrkAIg2 protein. […]

[3] = target: 7S NGF (complex of 2.5S (β-NGF) and γ NGF); test: cell-based or functional assay
Chain of 7S NGF (complex of 2.5S (β-NGF) and γ NGF) (P01139 122-241, one chain of several): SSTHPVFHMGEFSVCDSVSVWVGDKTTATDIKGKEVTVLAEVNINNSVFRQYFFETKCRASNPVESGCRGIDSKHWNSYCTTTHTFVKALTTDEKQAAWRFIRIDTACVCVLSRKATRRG

[4] = target: NGF (source and species not stated; used in the BiaCore study and on PC12 cells); test: SPR (BiaCore-X), TrkAIg2 amine-coupled to the chip, NGF 40 nM to 500 nM as analyte, BiaEval 3.0 fit
Chain of NGF (source and species not stated; used in the BiaCore study and on PC12 cells) (chain, as listed by the source): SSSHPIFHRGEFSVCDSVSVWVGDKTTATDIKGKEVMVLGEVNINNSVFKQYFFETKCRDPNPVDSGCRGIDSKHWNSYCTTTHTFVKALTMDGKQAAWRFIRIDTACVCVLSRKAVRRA
Description: TrkAIg2 was covalently attached to the surface of the sensor chip by coupling with amine groups on TrkAIg2 to carboxyl groups on the surface using BiaCore Amine Coupling kit and varying concentrations of NGF passed over at a constant flow rate of 20 μl/min for two minutes. Data were collected for a range of NGF concentrations of 1 μM to 1 nM. […] However, data collected for the range 40 nM to 500 nM could be successfully evaluated.

[5] = target: T1, Purified recombinant human NGF; test: competitive binding assay, 125I-NGF on A875 cells; reference TrkAIg1,2
Description: as §1, §2

T1 sequence (P01138 122-241 limits assumed): as the sequence (chain, as listed by the source) above

B1: TrkAIg1 (his TrkAIg1; TrkA Ig-like sub-domain 1, amino acids 160-252) (receptor)
chain: MGSSHHHHHHSSGLVPRGSHMLEGVPTLKVQVPNASVDVGDDVLLRCQVEGRGLEQAGWILTELEQSATVMKSGGLPSLGLTLANVTSDLNRKNLTCWAENDVGRAEVSVQVNVSF
notes: Two peaks eluted from Poros 20HQ; both were tested in the displacement assay; also called first immunoglobulin-like domain
B1: no binding [1].

B2: TrkAIg1,2 (the two immunoglobulin-like domains and proline-rich region of TrkA, amino acids 160-375) (receptor)
chain: MGSSHHHHHHSSGLVPRGSHMLEGVPTLKVQVPNASVDVGDDVLLRCQVEGRGLEQAGWILTELEQSATVMKSGGLPSLGLTLANVTSDLNRKNLTCWAENDVGRAEVSVQVNVSFPASVQLHTAVEMHHWCIPFSVDGQPAPSLRWLFNGSVLNETSFIFTEFLEPAANETVRHGCLRLNQPTHVNNGNYTLLAANPFGQASASIMAAFMDNPFEFNPEDPIPDTNSTSGDPVEKKDE
notes: The range counts on the mature extracellular domain; also called TrkAIg1,2 domain
B2 was tested, and the Kd [2] was 3.3 nM.

B3: TrkAIg2 (his TrkAIg2; TrkA Ig-like sub-domain 2 together with the proline rich region, amino acids 253-375; first, active peak from Poros 20HQ) (receptor)
chain: MGSSHHHHHHSSGLVPRGSHMPASVQLHTAVEMHHWCIPFSVDGQPAPSLRWLFNGSVLNETSFIFTEFLEPAANETVRHGCLRLNQPTHVNNGNYTLLAANPFGQASASIMAAFMDNPFEFNPEDPIPDTNSTSGDPVEKKDE
notes: The range 253-375 counts on the mature extracellular domain, not on the precursor; Removal of the His tag is not reported; also called TrkIg2; TrkAIg2 domain
With B3 the “NGF-induced plasma extravasation in rat skin, co-injection” value [3] was 10 fold excess, the Kd [4] was 11.8 nM and the “fold IC50 against TrkAIg1,2” value [5] was 3 fold.

Reference: patent US20030096753A1 (published 2003)
